The text below walks through data of paper PMC3035177 (Chemistry & biology, 2005).

The target in the test is T1, DnaG primase (purified) (B. stearothermophilus, UniProt Q9X4D0 1-597).
T1 sequence (looked up): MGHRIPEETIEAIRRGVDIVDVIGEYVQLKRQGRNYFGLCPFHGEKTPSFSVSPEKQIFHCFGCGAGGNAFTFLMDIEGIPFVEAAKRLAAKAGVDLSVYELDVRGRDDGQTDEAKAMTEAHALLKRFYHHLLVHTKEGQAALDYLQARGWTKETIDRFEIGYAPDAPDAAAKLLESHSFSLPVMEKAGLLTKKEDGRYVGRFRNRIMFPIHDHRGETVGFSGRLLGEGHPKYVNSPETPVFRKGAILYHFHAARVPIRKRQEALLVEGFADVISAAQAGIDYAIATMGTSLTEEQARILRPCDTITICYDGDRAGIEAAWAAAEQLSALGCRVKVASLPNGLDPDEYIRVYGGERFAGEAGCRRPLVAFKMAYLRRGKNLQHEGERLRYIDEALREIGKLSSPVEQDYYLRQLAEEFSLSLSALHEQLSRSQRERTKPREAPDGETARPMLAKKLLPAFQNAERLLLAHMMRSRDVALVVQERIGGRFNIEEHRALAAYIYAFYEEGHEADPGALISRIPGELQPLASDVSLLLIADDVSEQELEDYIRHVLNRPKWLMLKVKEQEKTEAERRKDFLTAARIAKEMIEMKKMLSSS
Briefly: SEC. Background: In gel filtration, larger molecules generally elute earlier.

B1: DnaB helicase (purified) (enzyme, B. stearothermophilus, UniProt Q9X4C9 1-454, looked up)
chain: MSELFSERIPPQSIEAEQAVLGAVFLDPAALVPASEILIPEDFYRAAHQKIFHAMLRVADRGEPVDLVTVTAELAASEQLEEIGGVSYLSELADAVPTAANVEYYARIVEEKSVLRRLIRTATSIAQDGYTREDEIDVLLDEADRKIMEVSQRKHSGAFKNIKDILVQTYDNIEMLHNRDGEITGIPTGFTELDRMTSGFQRSDLIIVAARPSVGKTAFALNIAQNVATKTNENVAIFSLEMSAQQLVMRMLCAEGNINAQNLRTGKLTPEDWGKLTMAMGSLSNAGIYIDDTPSIRVSDIRAKCRRLKQESGLGMIVIDYLQLIQGSGRSKENRQQEVSEISRSLKALARELEVPVIALSQLSRSVEQRQDKRPMMSDIRESGSIEQDADIVAFLYRDDYYNKDSENKNIIEIIIAKQRNGPVGTVQLAFIKEYNKFVNLERRFDEAQIPPGA
As for B1, the binding result is reported as “binds”.
